Data published in US12662531B2, “CLDN18.2 antibody and use thereof” (FUTUREGEN BIOPHARMACEUTICAL (BEIJING) CO., LTD., priority 2019, dated 2026).

Columns and labels:
[1] = target: T1, CLDN18.2 (CT26-CLDN18.2 cells) (Homo sapiens, UniProt P56856); assay: Flow cytometry binding of recombinant antibodies to CT26-CLDN18.2 cells; conditions: 4° C. 1 hour
T1 construct: expressed in transfected cells; host or cells: CT26 cells (mouse), lentiviral transduction, puromycin selection
Description: Binding activities of the recombinant monoclonal antibodies to CLDN18.2 were determined. Specifically, well-grown cell lines stably expressing CT26-CLDN18.2 were taken. The cells were washed with PBS, mixed with the fold-diluted antibody and incubated at 4° C. for 1 hour. The cells were washed once with flow cytometry buffer, PE-labeled anti-human IgG antibody was added, and incubated at 4° C. for 30 minutes. The supernatant was removed by centrifugation, and after the cells were washed with flow cytometry buffer, the fluorescence intensity on the surface of the cells was tested by flow cytometry. The relative binding activity of each antibody was calculated using the average fluorescence intensity.
The binding activity of the defucosylated antibodies 18.2-A1F, 18.2-A3F and 18.2-A4F to CLDN18.2 as compared to the binding activity of 18.2-A1, 18.2-A3 and 18.2-A4 to CLDN18.2 was tested by flow cytometry, the method of which is as described in Example 5, and the experimental results are shown in FIG. 7.

control CT26 cell line = assay: Flow cytometry binding to control CT26 cell line; conditions: results not shown
[2] = target: T2, CLDN18.2 (CLDN18.2-Flag 293t cells) (Homo sapiens, UniProt P56856); assay: Binding specificity, 293t cells expressing CLDN18.2-Flag, flow cytometry; conditions: 10 μg/ml antibody, 4° C. 1 hour
T2 construct: expressed in transfected cells; host or cells: 293t cells, transient transfection
Description: (§1) Human Claudin18 proteins include two homologues, i.e., CLDN18.1 and CLDN18.2, which share exons other than exon 1, and the exon 1 sequences of CLDN18.1 and CLDN18.2 are highly similar with only 8 different amino acids in the first extracellular region. The exon 1 of CLDN18.1 and the exon 1 of CLDN18.2 are specifically expressed in different tissues driven by different promoters. Among them, CLDN18.1 is specifically expressed in lung epithelial cells, while CLDN18.2 is specifically expressed in gastric epithelial cells. To identify the specificity of the screened CLDN18.2 antibodies, binding of the antibodies to CLDN18.1 and CLDN18.2 was tested.
(§2) Specifically, well-grown 293t cells were taken to transiently express flag-tagged CLDN18.1 (CLDN18.1-Flag) or CLDN18.2 (CLDN18.2-Flag). 48 hours after transfection, the cells were digested with trypsin. After washed with flow cytometry buffer, the cells were mixed with 10 μg/ml of isotype control antibody or one of the above five CLDN18.2 antibodies in 200 μl of flow cytometry buffer, and were incubated at 4° C. for 1 hour. Subsequently, the cells were washed once with flow cytometry buffer, PE-labeled anti-human IgG antibody was added, and incubated at 4° C. for 30 min. The supernatant was removed by centrifugation, wash was performed twice with flow cytometry buffer, and the cells were fixed in a fix solution containing 1% paraformaldehyde and 0.5% triton-X100 and the cell membrane was permeabilized. Subsequently, the cells were incubated with APC-labeled anti-flag antibody for 30 min and tested by flow cytometry.

[3] = target: T3, CLDN18.1 (CLDN18.1-Flag 293t cells) (Homo sapiens, UniProt P56856); assay: Binding specificity, 293t cells expressing CLDN18.1-Flag, flow cytometry; conditions: 10 μg/ml antibody, 4° C. 1 hour
T3 construct: expressed in transfected cells; host or cells: 293t cells, transient transfection
Description: as §1, §2

[4] = system: SNU601 cells expressing CLDN18.2; assay: Endocytosis of antibody after binding to SNU601 cells stably expressing CLDN18.2; type: cell-based; conditions: 10 μg/ml, 4 h
Description: It has been reported that the binding of some antibodies to cell surface antigens can cause endocytosis of antigen and antibody complexes, thereby reducing the expression level of the cell surface antigens and accelerating antibody metabolism in vivo (Schrama D et al., 2006, Nat Rev Drug Discov). In this example, the ability of antibodies 18.2-A1, 18.2-A3, 18.2-A4 and 18.2-A6 to be endocytosed by cells was tested in SNU601 cells stably expressing CLDN18.2. […] Subsequently, they were washed at 4° C. and stained with PE-labeled anti-human IgG antibody. After fixation with 4% formalin, antibody binding on the cell surface was tested by flow cytometry.

FcγRIIIa = assay: Biacore binding to FcγRIIIa; conditions: FcγRIIIa captured as ligand, antibody as analyte
Description: Subsequently, the binding activity of the CLDN18.2 antibody and its defucosylated form to FcγRIIIa was tested using the Biacore method. Specifically, FcγRIIIa (Sino Biological Inc, 10389-H08C1) was diluted to 0.1 μg/ml in HBS-EP buffer as a ligand, and 18.2-A1F and 18.2-A1 antibody samples were diluted to 360 μg/ml, 120 μg/ml, 40 μg/ml, 13.3 μg/ml and 4.4 μg/ml respectively as analytes. The ligand FcγRIIIa was immobilized using an indirect capture method. First, 50 μg/ml of Anti-His IgG was covalently bound to the surface of CMS chip through amino coupling, followed by the binding of the ligand and analyte. Affinity analysis experiments were performed in Biacore Wizard mode using a multi-cycle approach with FcγRIIIa as the ligand and 18.2-A1F and 18.2-A1 antibody samples as analytes.
The test for each sample includes three Start up, one zero concentration control, five gradient concentration samples and one replicate sample (reference). The chip was regenerated with 10 mM glycine-HCl, pH 1.5 regeneration solution after each cycle. Each concentration cycle of the analyte was set with a capture time of 60 s and a flow rate of the ligand solution of 10 μl/min; a binding time of ligand and analyte of 180 s, and a flow rate of the analyte solution of 30 μl/min; and a dissociation time of 180 s. The CMS chip coupled with Anti-His IgG was placed in the slot for detection and analysis. […]

[5] = system: human FcγRIIIa (V158) on FcγRIIIa-Jurkat cells; assay: Flow cytometry binding to FcγRIIIa-Jurkat cells
Description: We next further tested the binding activity of the CLDN18.2 antibodies and their defucosylated forms to FcγRIIIa expressed on the cell surface. Specifically, the human FcγRIIIa (V158, high FC binding subtype) gene was cloned into a mammalian cell expression vector carrying a puromycin screening marker and transfected into a Jurkat cell line. A cell line stably expressing FcγRIIIa (FcγRIIIa-Jurkat) was screened with puromycin. In addition, NK92MI is a human NK cell line that naturally expresses the FcγRIIIa receptor (F158, low FC binding subtype). The binding ability of the CLDN18.2 antibodies and their defucosylated forms to FcγRIIIa expressed on the surface of FcγRIIIa-jurkat cells and NK92MI cells was tested by flow cytometry. The specific flow cytometry assay is described with reference to Example 6.

[6] = system: untransfected Jurkat cells; assay: Flow cytometry binding to untransfected Jurkat cells; conditions: results not shown

binding to CT26 cell line expressing CLDN18.2 [1]: able to bind well | binding to CLDN18.2-flag transfected positive 293t cells [2]: able to bind well | binding to CLDN18.1-positive cells [3]: none of the six antibodies bound | binding to FcγRIIIa (Biacore) (FcγRIIIa): able to bind to FcγRIIIa effectively
B1: 18.2-A1: recombinant monoclonal CLDN18.2 antibody, VH SEQ ID NO: 1, VL SEQ ID NO: 6 (antibody, V domains shown)
VH: EVQLVQSGAEVKKPGASVKVSCKASGYTFTSSWLIWVRQAPGQGLEWIGTIVPSDSYTNYNQKFKDRATLTVDKSTSTAYMELSSLRSEDTAVYYCTRFRTGNSFDYWGQGTLVTVSS
VL: DIVMTQSPDSLSVGLGERATINCKSSQSVLNSGNQKNYLTWYQQKPGQPPKLLIYWAVARQSGVPDRFSGSGSGTDFTLTISSLQAEDVAVYYCQNSIAYPFTFGQGTKVEIK
modifications: 18.2-A1 VH; 18.2-A1 VL
binding to control CT26 cell line (control CT26 cell line): did not bind | binding to SNU601 cells expressing CLDN18.2 under 4° C. incubation ([4]; 4° C.): bound well | antibody staining/binding on the cell surface under 37° C. incubation ([4]; 37° C.): still bound well | endocytosis by cells under 37° C. incubation ([4]; 37° C.): did not undergo significant endocytosis | binding to FcγRIIIa-jurkat cells [5]: able to bind | binding to untransfected Jurkat cells [6]: not able to bind
